Assay results from US20240124585A1 (SUTRO BIOPHARMA, published 2024).
Read-outs that look alike come from different tables or passages of the source.

What was measured:
[1] = biological target: T1, cynomolgus CD3 epsilon (cynomolgus monkey, UniProt Q95LI5 22-117, limits assumed); assay: SPR (Biacore), antibody captured, cynomolgus CD3 epsilon analyte
T1 construct: Recombinant protein; also called cyno CD3E
T1 sequence: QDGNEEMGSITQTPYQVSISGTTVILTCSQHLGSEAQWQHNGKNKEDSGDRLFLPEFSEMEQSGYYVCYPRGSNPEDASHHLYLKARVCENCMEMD

[2] = biological target: T2, human CD3 epsilon (Acro Cat #CDE-H5223) (human, UniProt P07766 23-126); assay: SPR (Biacore), antibody captured, human CD3 epsilon analyte
T2 construct: Bought recombinant protein; also called rhCD3E
T2 sequence (P07766 23-126 limits assumed): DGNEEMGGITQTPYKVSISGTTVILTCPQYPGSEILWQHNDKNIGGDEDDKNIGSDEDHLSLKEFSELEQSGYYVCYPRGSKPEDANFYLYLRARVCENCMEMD

[3] = biological target: T3, human CD3 on T-cell lines (CD3-expressing Jurkat cells; HUT78 cells) (human, UniProt P07766 23-207); assay: flow cytometry, HUT78 cells
T3 construct: On cells it stands in the CD3/TCR complex
T3 sequence (P07766 23-207 limits assumed): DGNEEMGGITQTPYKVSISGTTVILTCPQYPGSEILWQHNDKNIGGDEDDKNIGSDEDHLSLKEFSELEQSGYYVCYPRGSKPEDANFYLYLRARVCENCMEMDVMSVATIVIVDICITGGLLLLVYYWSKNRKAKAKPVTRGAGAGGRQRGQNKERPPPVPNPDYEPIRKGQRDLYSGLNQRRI

[4] = biological target: T1, cynomolgus CD3 epsilon; assay: SPR (Biacore), antibody captured, cynomolgus CD3 epsilon analyte; remark: listed apart in the source
[5] = biological target: T2, human CD3 epsilon (Acro Cat #CDE-H5223); assay: SPR (Biacore), antibody captured, human CD3 epsilon analyte; remark: listed apart in the source
[6] = biological target: T3, human CD3 on T-cell lines …; assay: flow cytometry, HUT78 cells; remark: listed apart in the source
[7] = biological target: T3, human CD3 on T-cell lines …; assay: flow cytometry, HUT78 cells; remark: listed apart in the source
[8] = biological target: T2, human CD3 epsilon (Acro Cat #CDE-H5223); assay: SPR (Biacore), antibody captured, human CD3 epsilon analyte; remark: listed apart in the source
Experimental: Anti-Fab or anti-Fc polyclonal antibodies were immobilized onto a CM5 chip (GE Life Sciences) using amine coupling chemistry (from Amine Coupling Kit, GE Life Sciences). The immobilization steps were carried out at a flow rate of 25 μl/min in 1×HBS-EP+ buffer (GE Life Sciences; 10× Stock diluted before use). The sensor surfaces were activated for 7 min with a mixture of NHS (0.05 M) and EDC (0.2 M). The Anti-Fab or Anti-Fc antibodies were injected over all 4 flow cells at a concentration of 25 μg/mL in 10 mM sodium acetate, pH 4.5, for 7 min. Ethanolamine (1 M, pH 8.5) was injected for 7 min to block any remaining activated groups.
Off-rate and kinetic binding experiments were performed at 25° C. using 1×HBS-EP+ buffer. Test and control antibodies were injected over the anti-Fab or anti-Fc surface at concentrations of 5-10 μg/mL for 12 seconds at a flow rate of 10 μL/min on flow cells 2, 3 and 4, followed by a buffer wash for 30 seconds at the same flow rate. […] After capturing ligand (antibody) on the anti-Fc or anti-Fab surface, the analyte (human CD3 epsilon, Acro Cat #CDE-H5223) was bound for 180 seconds, followed by a 600 second dissociation phase at a flow rate of 50 μL/min. Between each ligand capture and analyte binding cycle, regeneration was carried out using two injections of 10 mM Glycine pH 2.0 for 30 seconds at 30 μL/min, followed by a 30 second buffer wash step.
The data was fit with the Biacore T200 Evaluation software, using a 1-1 Langmuir binding model. KD (affinity, nM) was determined as a ratio of the kinetic rate constants calculated from the fits of the association and dissociation phases.

[9] = biological target: T3, human CD3 on T-cell lines …; assay: flow cytometry; signal on CD3+ Jurkat over CD3- Jurkat RT3-T3.5 cells
Experimental: A high-throughput primary screen was performed to rapidly assess cell binding of antibodies produced in small-scale (60 μL) cell-free reactions. In this screen, four components are combined in equal volumes to a final volume of 100 μL/well in a U-bottom 96-well plate (Greiner Cat #650201) or flat bottom 384 well plate (Greiner Cat #781201). […] Plates are then incubated on ice for one hour. Cells are pelleted by spinning at 1500×g for 5 minutes and resuspended in assay buffer. High-throughput flow cytometry is then performed on resuspended cells on a FACS instrument (BD Biosciences FACS Canto II or BD Biosciences LSR II) and data is analyzed with FlowJo software. Antibody binding is assessed by the proportional level of secondary antibody signal (presumably due to binding to our antibody of interest) on Jurkat CD3-positive cells compared to the signal on Jurkat RT3.T3.5 CD3-negative cells.

B1: SRP2037-B10 (antibody, V domains shown)
VH: not shown
VL: QTVVTQEPSLTVSPGGTVTLTCGSSTGAVTSGYYPNWLQQKPGQAPRGLIGGTKFLAPGTPARFSGSLLGGKAALTLSGVQPEDEAEYYCALWYSNRWVFGGGTQLTVTG
notes: human IgG1, lambda; also called 2037-B10 WT; 2037-B10 wt LC (lambda)
Kd [1]: 0.418 nM | koff [1]: 0.000344 s⁻¹ | kon [1]: 824000 M⁻¹ s⁻¹ | Kd [2]: 2.2 nM | koff [2]: 0.000564 s⁻¹ | kon [2]: 256000 M⁻¹ s⁻¹ | Bmax (MFI) [3]: 1030 MFI | Kd [3]: 0.4 nM | Kd [4]: 0.416 nM | koff [4]: 0.000368 s⁻¹ | kon [4]: 884000 M⁻¹ s⁻¹ | Kd [5]: 0.465 nM | koff [5]: 0.000222 s⁻¹ | kon [5]: 478000 M⁻¹ s⁻¹ | Bmax (MFI) [6]: 1040 MFI | Kd [6]: 0.15 nM | HUT78 Bmax [7]: 1890 | Kd [7]: 2.33 nM | Kd [8]: 0.596 nM | koff [8]: 0.000306 s⁻¹ | kon [8]: 514000 M⁻¹ s⁻¹

B2: SMP1913-H02 (antibody, V domains shown)
VH: not shown
VL: QTVVTQEPSLTVSPGGTVTLTCGSSTGAVTSGYYPNWFQQKPGQAPRGLIGGTKFLAPGTPARFSGSLLGGKAALTLSGVQPEDEAEYYCALWYSNRWVFGGGTQLTVTG
notes: human IgG1, lambda; also called hSP34-Hc4 + SP34-Lc3
FACS S/N (Jurkat/Jurkat RT3-T3.5 binding) [9]: 1

B3: SMP1913-F04 (antibody, V domains shown)
VH: not shown
VL: QTVVTQEPSLTVSPGGTVTLTCGSSTGAVTSGYYPNWFQQKPGQAPRGLIGGTKFLAPGTPARFSGSLLGGKAALTLSGVQPEDEAEYYCALWYSNRWVFGGGTQLTVTG
notes: human IgG1, lambda; also called SP34-Hc + SP34-Lc3
FACS S/N (Jurkat/Jurkat RT3-T3.5 binding) [9]: 5.1

B4: SMP1913-G05 (antibody, human IgG1, lambda, V domains shown)
VH: EVQLVESGGGLVQPGRSLRLSCTASGFTFNKYAMNWFRQAPGKGLEWVARIRSKYNNYATYYADSVKDRFTISRDDSKSIAYLQMNSLKTEDTAVYYCVRHGNFGNSYISYWAYWGQGTLVTVSS
VL: not shown
notes: human IgG1, lambda; also called hSP34-Hc3 + SP34-Lc
FACS S/N (Jurkat/Jurkat RT3-T3.5 binding) [9]: 0.8

B5: SMP1913-G08 (antibody, human IgG1, lambda, V domains shown)
VH: EVQLVESGGGLVQPGRSLRLSCTASGFTFNKYAMNWFRQAPGKGLEWVARIRSKYNNYATYYADSVKDRFTISRDDSKSIAYLQMNSLKTEDTAVYYCVRHGNFGNSYISYWAYWGQGTLVTVSS
VL: QTVVTQEPSLTVSPGGTVTLTCGSSTGAVTSGYYPNWFQQKPGQAPRGLIGGTKFLAPGTPARFSGSLLGGKAALTLSGVQPEDEAEYYCALWYSNRWVFGGGTQLTVTG
notes: human IgG1, lambda; also called hSP34-Hc3 + SP34-Lc3
FACS S/N (Jurkat/Jurkat RT3-T3.5 binding) [9]: 1

B6: 2037-B10-Lc10 (antibody, V domains shown)
VH: not shown
VL: DTQVTQSPSLSASVGDRVTITCGSSTGAVTSGYYPNWLQQKPGQAPRGLIGGTKFLAPGVPSRFSGSLLGGKAALTISSLQPEDFAEYYCALWYSNRWVFGGGTKVEIKR
notes: human IgG1, kappa; also called Kappa Lc10
Bmax (MFI) [3]: 1240 MFI | Kd [3]: 0.6 nM | Kd [4]: 0.371 nM | koff [4]: 0.000404 s⁻¹ | kon [4]: 1.09e+06 M⁻¹ s⁻¹ | Kd [8]: 0.464 nM | koff [8]: 0.000314 s⁻¹ | kon [8]: 677000 M⁻¹ s⁻¹

B7: SMP1913-F03 (antibody, V domains shown)
VH: not shown
VL: QSAVTQPRSVSGSPGQSVTISCGSSTGAVTSGYYPNWYQQHPGKAPKGMIGGTKFLAPGVPDRFSGSLLGNTASLTISGLQAEDEADYYCALWYSNRWVFGGGTQLTVTG
notes: human IgG1, lambda; also called SP34-Hc + SP34-Lc2
FACS S/N (Jurkat/Jurkat RT3-T3.5 binding) [9]: 1

B8: SMP1913-F08 (antibody, V domains shown)
VH: not shown
VL: QSAVTQPRSVSGSPGQSVTISCGSSTGAVTSGYYPNWYQQHPGKAPKGMIGGTKFLAPGVPDRFSGSLLGNTASLTISGLQAEDEADYYCALWYSNRWVFGGGTQLTVTG
notes: human IgG1, lambda; also called hSP34-Hc1 + SP34-Lc2
FACS S/N (Jurkat/Jurkat RT3-T3.5 binding) [9]: 0.9

B9: 2037-B10-Lc5 (antibody)
heavy: not shown
light: DTQVTQSPSLSASVGDRVTITCGSSTGAVTSGYYPNWLQQKPGQAPRGLIGGTKFLAPGVPSRFSGSGSGTDFTLTISSLQPEDFATYYCALWYSNRWVFGGGTKVEIKRTVAAPSVFIFPPSDEQLKSGTASVVCLLNNFYPREAKVQWKVDNALQSGNSQESVTEQDSKDSTYSLSSTLTLSKADYEKHKVYACEVTHQGLSSPVTKSFNRGEC
notes: human IgG1, kappa; also called Kappa Lc5; Parent HC + Kappa Lc5
Bmax (MFI) [3]: 1200 MFI | Kd [3]: 40.7 nM | Kd [4]: 8.28 nM | koff [4]: 0.000478 s⁻¹ | kon [4]: 57700 M⁻¹ s⁻¹ | HUT78 Bmax [7]: 1850 | Kd [7]: 47 nM | Kd [8]: 12.2 nM | koff [8]: 0.000464 s⁻¹ | kon [8]: 38200 M⁻¹ s⁻¹

B10: 2037-B10-Lc6 (antibody)
heavy: not shown
light: DIQMTQSPSSLSASVGDRVTITCGSSTGAVTSGYYPNWLQQKPGQAPRGLIGGTKFLAPGVPSRFSGSLSGGKATLTISSLQPEDFATYYCALWYSNRWVFGGGTKVEIKRTVAAPSVFIFPPSDEQLKSGTASVVCLLNNFYPREAKVQWKVDNALQSGNSQESVTEQDSKDSTYSLSSTLTLSKADYEKHKVYACEVTHQGLSSPVTKSFNRGEC
notes: human IgG1, kappa; also called Kappa Lc6; Parent HC + Kappa Lc6
Kd [1]: 0.56 nM | koff [1]: 0.000375 s⁻¹ | kon [1]: 670000 M⁻¹ s⁻¹ | Kd [2]: 1.96 nM | koff [2]: 0.000479 s⁻¹ | kon [2]: 244000 M⁻¹ s⁻¹ | Bmax (MFI) [3]: 1320 MFI | Kd [3]: 0.8 nM | Kd [4]: 0.413 nM | koff [4]: 0.000311 s⁻¹ | kon [4]: 753000 M⁻¹ s⁻¹ | HUT78 Bmax [7]: 1780 | Kd [7]: 1.6 nM | Kd [8]: 0.648 nM | koff [8]: 0.000278 s⁻¹ | kon [8]: 430000 M⁻¹ s⁻¹

B11: SMP1913-F10 (antibody, V domains shown)
VH: not shown
VL: QTVVTQEPSFSVSPGGTVTLTCGSSTGAVTSGYYPNWYQQTPGQAPRGLIGGTKFLAPGVPDRFSGSLLGNKAALTITGAQADDESDYYCALWYSNRWVFGGGTQLTVTG
notes: human IgG1, lambda; also called hSP34-Hc1 + SP34-Lc4
FACS S/N (Jurkat/Jurkat RT3-T3.5 binding) [9]: 1

B12: SMP1913-G04 (antibody, human IgG1, lambda, V domains shown)
VH: EVQLLESGGGLVQPGGSLRLSCAASGFTFNKYAMNWVRQAPGKGLEWVARIRSKYNNYATYYADSVKDRFTISRDDSKNTAYLQMNSLRAEDTAVYYCVRHGNFGNSYISYWAYWGQGTLVTVSS
VL: QTVVTQEPSFSVSPGGTVTLTCGSSTGAVTSGYYPNWYQQTPGQAPRGLIGGTKFLAPGVPDRFSGSLLGNKAALTITGAQADDESDYYCALWYSNRWVFGGGTQLTVTG
notes: human IgG1, lambda; also called hSP34-Hc2 + SP34-Lc4
FACS S/N (Jurkat/Jurkat RT3-T3.5 binding) [9]: 1

B13: SMP1913-F05 (antibody, V domains shown)
VH: not shown
VL: QTVVTQEPSFSVSPGGTVTLTCGSSTGAVTSGYYPNWYQQTPGQAPRGLIGGTKFLAPGVPDRFSGSLLGNKAALTITGAQADDESDYYCALWYSNRWVFGGGTQLTVTG
notes: human IgG1, lambda; also called SP34-Hc + SP34-Lc4
FACS S/N (Jurkat/Jurkat RT3-T3.5 binding) [9]: 0.9

B14: SMP1913-F02 (antibody, V domains shown)
VH: not shown
VL: EIVVTQSPGTLSLSPGERATLSCGSSTGAVTSGYYPNWYQQKPGQAPRGLIGGTKFLAPGIPDRFSGSLLGTDATLTISRLEPEDFAVYYCALWYSNRWVFGQGTKLEIKR
notes: human IgG1, kappa; also called SP34-Hc + SP34-Lc1
FACS S/N (Jurkat/Jurkat RT3-T3.5 binding) [9]: 0.9

B15: SMP1913-F07 (antibody, V domains shown)
VH: not shown
VL: EIVVTQSPGTLSLSPGERATLSCGSSTGAVTSGYYPNWYQQKPGQAPRGLIGGTKFLAPGIPDRFSGSLLGTDATLTISRLEPEDFAVYYCALWYSNRWVFGQGTKLEIKR
notes: human IgG1, kappa; also called hSP34-Hc1 + SP34-Lc1
FACS S/N (Jurkat/Jurkat RT3-T3.5 binding) [9]: 0.8
